Reference: US20170174769A1 (Regeneron, published 2017)

B1: H4H8859P (antibody, V domains shown)
VH: EVQLVESGGSVVRPGGSLRLSCAASGFTFDVYGMSWVRQAPGKGLEWVSGINWIGGSTGYADSVKGRFTISRDNAKNSLYLQMNSLRAEDTALYYCTREEDYWGQGTLVTVSS
VL: DVVMTQSPLSLAVTLGQPASISCRSSQSLVYSDGNTYLNWFQQRPGQSPRRLFYKVSNRDSGVPDRFSGSGSGTDFTLKISRVEAEDVGIYYCMQGIKWPLTFGGGTKVEIK
notes: human IgG4 Fc (H4H prefix)
B2: H4H8870P (antibody, V domains shown)
VH: EVQLVESGGGVVRPGGSLRLSCAASGFKFDVYGMSWVRQLPGKGLEWVSGISWTGGSSGYADSVKGRFTISRDNGKKSLYLQMNSLRAEDTALYYCTREEDYWGQGTLVTVSS
VL: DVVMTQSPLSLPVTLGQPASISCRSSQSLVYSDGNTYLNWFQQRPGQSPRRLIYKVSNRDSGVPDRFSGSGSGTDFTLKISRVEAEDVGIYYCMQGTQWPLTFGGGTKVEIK
notes: human IgG4 Fc (H4H prefix)
B3: H2aM8093N (antibody, V domains shown)
VH: QVQLVQSGAEVKRPGSSVKVSCKASGDTFSTYAISWVRQAPGQGLEWMGGIIPVFGTTNYAQKFQDRVTITTDESTRTAYMELSSLRSEDTAVYYCAGIAGPDYWGQGTLVTVSS
VL: DIQMTQSPSSLSASVGDRVTITCRASQGIRNYLAWFQQKPGKAPKSLIYLATSLQSGVPSKFSGSGSGTDFTLTISSLQPEDFATYYCQQYYSYPWTFGQGTKVEIK
notes: mouse IgG2 Fc (H2aM prefix)
B4: H1H8900P (antibody, V domains shown)
VH: QVQLVESGGGVVQPGRSLRLSCVASGFTFSSYGMHWVRQAPGKGLEWVAVISFDGSNKYYADSVKGRFTISRDNSKNTLYLQMNSLRPADTAVYYCAKDRSNYYYFGMDVWGQGTTVTVSS
VL: DIVMTQTPLSLPVTPGEPASISCRSSQSLLDSDDGNTYLDWYLQKPGQSPQLLIYTLSYRASGVPDRFSGSGSGTDFTLKISRVEAEDVGVYYCMQRIEFPLTFGGGTKVEIK
notes: H1H Fc prefix (human Fc)
B5: H2aM8091N (antibody, V domains shown)
VH: QVQLVQSGADMKKPGASVKVSCKASGYTFTTYGINWVRQAPGQGLEWMGWISAYSGITNYAQSFQGRVTMTTDTSTSTAYMELRSLRSDDTAVYYCARGGYNWATGDYFDYWGQGTLVTVSS
VL: DIQMTQSPSTLSASIGDRVTITCRASQSISSWLAWYQQKPGKAPKFLIYKASSLASGVPSRFSGSGSGTEFTLTISSLQPDDFATYYCQQYDSYSPYTFGQGTKVEIK
notes: mouse IgG2 Fc (H2aM prefix); also called H2M8091N
B6: H2aM8092N (antibody, V domains shown)
VH: QVQLQESGPGLVKPSETLSLTCTVSGGSISSYYWSWIRQPPGKGLDWIGHIYYSGTTYYNPSLKSRVSISLDTSKNQFSLKLSSVTAADTAVYYCARHLRGYSSGREFDYWGQGTLVTVSS
VL: DIQMTQSPSSLSASVGGRVSLTCRASQSIFSYLNWYQQKPGKAPKLLIYAASNLQSGVPSRFSGSGSGTDFTLTISSLQPEDFATYSCQQSYNIPYTFGQGTKLEIK
notes: mouse IgG2 Fc (H2aM prefix); also called H2M8092N
B7: H1H8899P (antibody, V domains shown)
VH: EVQLVESGGGLVQPGGSLRLSCAASGFTFSSHWMSWVRQAPGKGLEWVANIKQDGSEKYYVDSVKGRFTISRDNAKNSLYLQISSLRAEDTAVYYCASNWNFLFDFWGQGTLVTVSS
VL: not shown
B8: H2aM8098N (antibody, V domains shown)
VH: QLQLQESGPGLVKPSETLSLTCTVSGGSISSSNYYWDWIRQTPEKGLEWIGSIHYSGTSYYNPSLKSRVTISVDTSKNQFSLKLRSVTAADAAVYYCARQTSVYWYFDIWGHGTLVTVST
VL: EIVLTQSPGTLSLSPGEGATLSCRASQSVRNNYLAWYQQKPGQAPRLLIYGASSRAIGIPDRFSGSGSGTDFTLTISRLEPKDFVVYYCQQYGGSLFTFGPGTKVDIK
notes: mouse IgG2 Fc (H2aM prefix)

Experiments:
[1] = target: T1, extracellular domain of human KLB expressed with C-terminal HA and hexahistidine tags (human, UniProt Q86Z14 1-996); test: SPR, mAb captured, 37 C
T1 construct: also called hKLB-HA-6His; hKLB-HA-6his
T1 sequence: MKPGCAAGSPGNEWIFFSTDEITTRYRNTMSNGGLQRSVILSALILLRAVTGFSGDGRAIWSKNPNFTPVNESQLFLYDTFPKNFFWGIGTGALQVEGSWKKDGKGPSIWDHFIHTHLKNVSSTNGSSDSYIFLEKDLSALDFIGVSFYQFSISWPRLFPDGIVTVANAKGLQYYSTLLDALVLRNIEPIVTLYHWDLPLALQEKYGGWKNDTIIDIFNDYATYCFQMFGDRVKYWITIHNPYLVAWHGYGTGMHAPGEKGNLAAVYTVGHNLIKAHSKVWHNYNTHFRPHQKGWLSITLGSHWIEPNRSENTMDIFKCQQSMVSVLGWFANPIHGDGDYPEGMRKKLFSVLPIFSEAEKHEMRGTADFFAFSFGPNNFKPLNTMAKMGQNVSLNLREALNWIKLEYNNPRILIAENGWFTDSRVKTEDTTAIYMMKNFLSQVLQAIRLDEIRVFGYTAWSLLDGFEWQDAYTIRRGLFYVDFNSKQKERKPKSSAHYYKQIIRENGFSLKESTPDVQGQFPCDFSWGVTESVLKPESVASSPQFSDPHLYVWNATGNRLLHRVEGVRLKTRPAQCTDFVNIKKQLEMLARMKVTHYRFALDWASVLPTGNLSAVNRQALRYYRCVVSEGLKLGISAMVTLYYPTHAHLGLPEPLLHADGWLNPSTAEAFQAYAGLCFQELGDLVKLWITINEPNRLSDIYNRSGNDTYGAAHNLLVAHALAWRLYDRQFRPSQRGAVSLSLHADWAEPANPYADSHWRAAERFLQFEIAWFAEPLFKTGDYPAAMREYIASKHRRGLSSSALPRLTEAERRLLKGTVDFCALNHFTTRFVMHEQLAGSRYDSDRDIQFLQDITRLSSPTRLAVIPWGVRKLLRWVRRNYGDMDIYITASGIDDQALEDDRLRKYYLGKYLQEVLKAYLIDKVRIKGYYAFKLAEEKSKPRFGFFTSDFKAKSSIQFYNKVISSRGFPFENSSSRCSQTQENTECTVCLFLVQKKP
Protocol: (§1) Equilibrium dissociation constants (KD values) for human KLB or human FGFR1c binding to purified anti-KLB/FGFR1c monoclonal antibodies were determined using a real-time surface plasmon resonance biosensor using a Biacore T-200 or 4000 instrument. The Biacore sensor surface was derivatized by amine coupling with either a polyclonal rabbit anti-mouse antibody (GE, # BR-1008-38) or with a monoclonal mouse anti-human Fc antibody (GE, # BR-1008-39) to capture anti-KLB/FGFR1c monoclonal antibodies expressed with either a mouse Fc or a human Fc, respectively. All Biacore binding studies were performed in a buffer composed of 0.01M HEPES pH 7.4, 0.15M NaCl, 3mM EDTA, 0.05% v/v Surfactant P20 (HBST running buffer). […] Association of hKLB-HA-6His or hFGFR1c-V5-6His to the captured monoclonal antibody was monitored for 3.5 to 4 minutes and the dissociation of hKLB-HA-6His or hFGFR1c-V5-6His in HBST running buffer was monitored for 8-12 minutes. All the binding kinetics experiments were performed at 25° C. or 37° C. Kinetic association (kₐ) and dissociation (kd) rate constants were determined by fitting the real-time sensorgrams to a 1:1 binding model using Scrubber 2.0c curve fitting software. Binding dissociation equilibrium constants (KD) and dissociative half-lives (t½) were calculated from the kinetic rate constants as: […]

[2] = target: T2, extracellular domain of human FGFR1c expressed with C-terminal V5 and hexahistidine tags (human, UniProt P11362 22-376); test: SPR, mAb captured, 37 C
T2 construct: also called hFGFR1c-V5-6His
T2 sequence: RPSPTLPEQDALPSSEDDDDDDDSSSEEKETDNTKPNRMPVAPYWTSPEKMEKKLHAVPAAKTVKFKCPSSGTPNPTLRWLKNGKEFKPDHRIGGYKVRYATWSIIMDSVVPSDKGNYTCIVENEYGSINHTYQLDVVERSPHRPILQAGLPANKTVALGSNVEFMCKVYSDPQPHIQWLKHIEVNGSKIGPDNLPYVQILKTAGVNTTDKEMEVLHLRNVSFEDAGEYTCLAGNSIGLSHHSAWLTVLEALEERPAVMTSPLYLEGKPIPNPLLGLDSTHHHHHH
Protocol: as §1

[3] = target: T3, human KLB and human FGFR1c co-expressed on HEK293/hKLB/hFGFR1c/SRE-luc cells (human, UniProt Q86Z14 1-1044; P11362 22-822); test: FACS on stable HEK293 cells
T3 construct: two receptors co-expressed on one cell line; also called KLB/FGFR1c coreceptor; FGF21R
Protocol: To determine binding specificity of the monoclonal anti-KLB/FGFR1c antibodies, the antibodies were tested in a fluorescence-activated cell sorting (FACS) binding assay to cell lines expressing human FGFR1c, human KLB, and both human FGFR1c and human KLB. HEK293 cell lines were generated that stably express full-length human FGFR1c (hFGFR1c; SEQ ID NO:433) or full-length human KLB (hKLB; SEQ ID NO:434) or both human FGFR1c and human KLB, along with a luciferase reporter [SRE (serum response element)-luciferase, SA Bioscience, #CLS-010L]. The resulting cell lines, referred to as HEK293/hFGFR1c/SRE-luc, HEK293/hKLB/SRE-luc, and HEK293/hKLB/hFGFR1c/SRE-luc, respectively, were maintained in DMEM supplemented with 10% FBS, NEAA, penicillin/streptomycin, 1 μg/mL puromycin and […] hygromycin B, 1 μg/mL puromycin and 500 μg/mL G418, or all three antibiotics.
For the FACS analysis, HEK293 parental, HEK293/hFGFR1c/SRE-luc, HEK293/hKLB/SRE-luc, and HEK293/hKLB/hFGFR1c/SRE-luc cells were dissociated and plated onto 96-well v-bottom plates at 5 x 10⁵ cells/well in PBS containing 1% FBS. […] Cells were filtered and subsequently analyzed on a Hypercyte Flow Cytometer (Intellicyt Corp.). Unstained and secondary antibody alone controls were also tested for binding to all cell lines. The results were analyzed using FlowJo version 9.52 software and geometric mean (Geom. Mean) of fluorescence for viable cells was determined. Geom. mean of fluorescence for each antibody was then normalized to Geom. mean of unstained cells to obtain relative binding of antibody (binding ratios) per each cell type.

[4] = target: M. fascicularis KLB and human FGFR1c co-expressed on HEK293/MfKLB/hFGFR1c/SRE-Luc cells (M. fascicularis; human, UniProt A0A2K5WB58 1-1044); test: cell-based or functional assay
Sequence of M. fascicularis KLB and human FGFR1c co-expressed on HEK293/MfKLB/hFGFR1c/SRE-Luc cells (chain, as listed by the source, chain 1 of 2): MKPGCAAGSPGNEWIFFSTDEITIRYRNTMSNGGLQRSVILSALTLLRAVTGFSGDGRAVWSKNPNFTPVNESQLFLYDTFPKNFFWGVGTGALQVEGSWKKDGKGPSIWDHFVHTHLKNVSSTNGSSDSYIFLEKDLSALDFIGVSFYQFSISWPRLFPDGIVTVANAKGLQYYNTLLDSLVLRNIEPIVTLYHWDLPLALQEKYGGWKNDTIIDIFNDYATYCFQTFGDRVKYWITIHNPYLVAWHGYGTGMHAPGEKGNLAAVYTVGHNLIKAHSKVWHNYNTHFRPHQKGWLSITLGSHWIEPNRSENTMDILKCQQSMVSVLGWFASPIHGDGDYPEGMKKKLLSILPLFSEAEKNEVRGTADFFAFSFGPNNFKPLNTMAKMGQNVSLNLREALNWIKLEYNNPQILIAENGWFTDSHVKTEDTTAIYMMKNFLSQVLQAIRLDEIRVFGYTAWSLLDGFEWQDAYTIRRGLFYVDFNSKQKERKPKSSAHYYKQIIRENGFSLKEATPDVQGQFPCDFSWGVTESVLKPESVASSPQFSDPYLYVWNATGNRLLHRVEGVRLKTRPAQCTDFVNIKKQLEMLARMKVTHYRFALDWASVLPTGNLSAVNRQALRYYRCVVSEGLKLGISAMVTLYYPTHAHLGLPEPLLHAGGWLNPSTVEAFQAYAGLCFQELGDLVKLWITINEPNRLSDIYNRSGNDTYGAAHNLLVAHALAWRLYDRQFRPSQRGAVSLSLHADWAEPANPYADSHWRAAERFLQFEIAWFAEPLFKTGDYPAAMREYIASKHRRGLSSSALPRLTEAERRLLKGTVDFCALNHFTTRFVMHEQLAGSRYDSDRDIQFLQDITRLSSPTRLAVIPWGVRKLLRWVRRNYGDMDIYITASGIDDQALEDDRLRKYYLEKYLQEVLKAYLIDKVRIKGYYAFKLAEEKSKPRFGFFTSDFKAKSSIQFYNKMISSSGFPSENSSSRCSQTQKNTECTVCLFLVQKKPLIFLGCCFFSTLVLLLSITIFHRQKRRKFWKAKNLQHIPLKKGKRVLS
Sequence of M. fascicularis KLB and human FGFR1c co-expressed on HEK293/MfKLB/hFGFR1c/SRE-Luc cells (chain, as listed by the source, chain 2 of 2): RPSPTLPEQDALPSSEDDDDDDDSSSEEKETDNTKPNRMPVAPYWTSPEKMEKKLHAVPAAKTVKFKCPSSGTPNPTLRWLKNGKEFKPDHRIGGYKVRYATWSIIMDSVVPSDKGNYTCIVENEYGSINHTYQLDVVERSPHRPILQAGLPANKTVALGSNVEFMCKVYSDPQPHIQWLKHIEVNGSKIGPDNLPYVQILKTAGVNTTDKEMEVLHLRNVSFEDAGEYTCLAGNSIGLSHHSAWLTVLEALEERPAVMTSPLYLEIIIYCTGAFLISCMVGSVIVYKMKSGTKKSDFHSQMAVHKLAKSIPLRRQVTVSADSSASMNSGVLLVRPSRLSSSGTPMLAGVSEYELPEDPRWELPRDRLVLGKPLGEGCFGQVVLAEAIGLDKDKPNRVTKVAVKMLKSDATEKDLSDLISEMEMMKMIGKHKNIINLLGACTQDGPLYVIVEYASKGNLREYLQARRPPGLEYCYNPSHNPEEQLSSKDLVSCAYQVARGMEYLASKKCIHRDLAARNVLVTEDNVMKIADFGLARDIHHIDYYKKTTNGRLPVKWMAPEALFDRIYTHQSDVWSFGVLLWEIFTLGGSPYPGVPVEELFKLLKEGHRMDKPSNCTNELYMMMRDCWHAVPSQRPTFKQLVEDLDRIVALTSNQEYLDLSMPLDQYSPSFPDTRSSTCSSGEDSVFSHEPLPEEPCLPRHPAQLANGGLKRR

Row | Binder | 20 nM hKLB-HA-6His Bind (RU) [1] | 180 nM hFGFR1c-V5-6His Bind (RU) [2] | Kd [2] | koff [2] | kon [2] | t1/2 [2] | binding ratio to unstained cells [3] | IC50, inhibition of 10 nM mfFGF21 [4] | Maximum Inhibition (%) of 10 nM mfFGF21 [4] | Kd [1] | koff [1] | kon [1] | t1/2 [1]
1 | B1 | 0.8 RU | 6.8 RU | 497 nM | 0.0382 s⁻¹ | 76800 M⁻¹ s⁻¹ | 0.3 min | 4 fold |  |  |  |  |  | 
2 | B2 | -0.8 RU | 10.6 RU | 301 nM | 0.0795 s⁻¹ | 264000 M⁻¹ s⁻¹ | 0.1 min | 4 fold |  |  |  |  |  | 
3 | B3 | 211 RU | 0.6 RU |  |  |  |  | 41 fold | 0.026 nM | 46% | 0.222 nM | 0.00018 s⁻¹ | 812000 M⁻¹ s⁻¹ | 64.1 min
4 | B4 | 2.6 RU | 1.6 RU |  |  |  |  | 6 fold |  |  |  |  |  | 
5 | B5 | -2.3 RU | -1.3 RU |  |  |  |  | 37 fold | 2.3 nM | 104% |  |  |  | 
6 | B6 | 93.6 RU | 0.5 RU |  |  |  |  | 46 fold | 0.22 nM | 18% | 0.412 nM | 8e-05 s⁻¹ | 194000 M⁻¹ s⁻¹ | 144 min
7 | B7 | -0.1 RU | 2.8 RU |  |  |  |  | 4 fold |  |  |  |  |  | 
8 | B8 | 3.9 RU | -1.4 RU |  |  |  |  | 23 fold |  |  |  |  |  | 
